Measured values: patent US8835119B2, “Lectin pathway deficiency assay” (Euro Diagnostica AB, priority 2002, dated 2014)

B1: Calreticulin (protein, UniProt P27797 18-417, looked up)
Calreticulin: EPAVYFKEQFLDGDGWTSRWIESKHKSDFGKFVLSSGKFYGDEEKDKGLQTSQDARFYALSASFEPFSNKGQTLVVQFTVKHEQNIDCGGGYVKLFPNSLDQTDMHGDSEYNIMFGPDICGPGTKKVHVIFNYKGKNVLINKDIRCKDDEFTHLYTLIVRPDNTYEVKIDNSQVESGSLEDDWDFLPPKKIKDPDASKPEDWDERAKIDDPTDSKPEDWDKPEHIPDPDAKKPEDWDEEMDGEWEPPVIQNPEYKGEWKPRQIDNPDYKGTWIHPEIDNPEYSPDPSIYAYDNFGVLGLDLWQVKSGTIFDNFLITNDEAYAEEFGNETWGVTKAAEKQMKDKQDEEQRLKEEEEDKKRKEEEEAEDKEDDEDKDEDEEDEEDKEEDEEEDVPGQAKDEL
B2: gC1qR: globular C1q receptor, binds specifically to the globular head of C1q (protein, UniProt Q07021 74-282, looked up)
Complement component 1 Q …: LHTDGDKAFVDFLSDEIKEERKIQKHKTLPKMSGGWELELNGTEAKLVRKVAGEKITVTFNINNSIPPTFDGEEEPSQGQKVEEQEPELTSTPNFVVEVIKNDDGKKALVLDCHYPEDEVGQEDEAESDIFSIREVSFQSTGESEWKDTNYTLNTDSLDWALYDHLMDFLADRGVDNTFADELVELSTALEHQEYITFLEDLKSFVKSQ
B3: Decorin: dermatan sulfate proteoglycan, a constituent of the extracellular matrix (protein, UniProt P07585 31-359, looked up)
Decorin: DEASGIGPEVPDDRDFEPSLGPVCPFRCQCHLRVVQCSDLGLDKVPKDLPPDTTLLDLQNNKITEIKDGDFKNLKNLHALILVNNKISKVSPGAFTPLVKLERLYLSKNQLKELPEKMPKTLQELRAHENEITKVRKVTFNGLNQMIVIELGTNPLKSSGIENGAFQGMKKLSYIRIADTNITSIPQGLPPSLTELHLDGNKISRVDAASLKGLNNLAKLGLSFNSISAVDNGSLANTPHLRELHLDNNKLTRVPGGLAEHKYIQVVYLHNNNISVVGSSDFCPPGHNTKKASYSGVSLFSNPVQYWEIQPSTFRCVYVRSAIQLGNYK

Assays:
[1] = tested on: alternative pathway (AP) of complement; conditions: NHS in calcium-free buffer (GVB/MgEGTA)
Method: As a ligand for AP activation, LPS was coated at 10 μg/ml. LPS from Salmonella typhosa was obtained from Sigma (L-6386), dissolved in PBS at 1.6 mg/ml and stored at −20° C. Plates were blocked by using 1% BSA in PBS. Serum samples were diluted in GVB/MgEGTA (VBS containing 10 mM EGTA, 5 mM MgCl2, 0.05% Tween-20, and 0.1% gelatin; pH 7.5) and incubated in the plate for 1 hour at 37° C. Complement binding was assessed by using dig-conjugated mAb directed against C4 and C3 followed by the detection of mAb binding by using HRP-conjugated sheep anti-dig antibodies.
In order to enable the detection of all complement activation pathways in one assay system, the activation of the alternative pathway in an ELISA system was also studied. […] Therefore, a calcium-free buffer was used, thus excluding involvement of the CP and the LP.

[2] = tested on: classical complement pathway; conditions: several in vitro assays; cited from earlier work
C1q [3] = molecular target: T1, C1q (Homo sapiens, UniProt P02745+P02746+P02747); conditions: cited from earlier work
T1 sequence (P02745 23-245): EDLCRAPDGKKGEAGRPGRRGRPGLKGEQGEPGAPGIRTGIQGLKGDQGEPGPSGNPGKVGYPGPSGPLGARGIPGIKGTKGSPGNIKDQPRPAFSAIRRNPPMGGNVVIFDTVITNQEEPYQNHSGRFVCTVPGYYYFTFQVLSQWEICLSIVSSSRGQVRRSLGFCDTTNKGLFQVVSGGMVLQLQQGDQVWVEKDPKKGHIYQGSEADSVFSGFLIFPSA
T1 sequence (P02746 28-253): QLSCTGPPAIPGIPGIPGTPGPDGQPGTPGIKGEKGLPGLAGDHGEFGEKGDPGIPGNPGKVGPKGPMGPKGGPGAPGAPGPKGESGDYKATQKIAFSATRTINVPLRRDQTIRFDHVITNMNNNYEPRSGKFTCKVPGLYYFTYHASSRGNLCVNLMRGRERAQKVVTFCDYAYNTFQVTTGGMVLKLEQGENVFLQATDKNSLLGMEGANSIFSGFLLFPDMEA
T1 sequence (P02747 29-245): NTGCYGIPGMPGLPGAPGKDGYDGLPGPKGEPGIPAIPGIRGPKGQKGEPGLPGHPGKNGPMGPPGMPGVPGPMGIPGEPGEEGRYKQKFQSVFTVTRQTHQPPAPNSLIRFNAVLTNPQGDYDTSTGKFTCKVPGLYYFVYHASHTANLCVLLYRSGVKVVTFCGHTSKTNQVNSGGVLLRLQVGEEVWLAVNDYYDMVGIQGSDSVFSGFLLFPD

C1q [4] = molecular target: T1, C1q; set-up: Human C1q was isolated from human donor plasma exactly as described previously; from tissue; host or cells: human donor plasma; conditions: cited from earlier work
C1q [5] = molecular target: T1, C1q; set-up: Human C1q was isolated from human donor plasma exactly as described previously; from tissue; host or cells: human donor plasma; conditions: cited from earlier work; remark: listed apart in the source
[6] = tested on: lectin pathway (LP) of complement; test: Lectin pathway ELISA: complement activation by NHS on immobilized mannan; format: biochemical, human; conditions: FIG. 3C; C1q-depleted NHS 1/400, purified C1q 0.5 μg/ml
Method: Functional activity of the lectin pathway was assessed with ELISA by using immobilized mannan as a ligand. Mannan was obtained from Sigma from Saccharomyces cerevisiae; M7504), dissolved in PBS (10 mg/ml) and stored at −20° C. Nunc Maxisorb plates (Nunc, Roskilde, Denmark) were coated with mannan (100 μg/ml) in coating buffer (100 mM Na2CO3/NaHCO3, pH 9.6) for 16 hours at room temperature or for 2 hours at 37° C. After each step, the plates were washed three times with PBS containing 0.05% Tween 20. Residual binding sites were blocked by incubation for one hour at 37° C. with PBS containing 1% BSA. […] This mixture was pre-incubated for 15 minutes on ice, before addition to the plates. […] Complement binding was detected by using mouse mAb conjugated to digoxygenin (dig) by using digoxygenin-3-O-methylcarbonyl-ε-aminocaproic acid-N-hydroxysuccinimide ester (from Boehringer Mannheim, Mannheim, Germany) according to instructions provided by the manufacturer. […] Binding of mAb was detected by using dig-conjugated sheep anti-mouse antibodies (Fab fragments) followed by HRP-conjugated sheep anti-dig antibodies (Fab fragments, both from Boehringer Mannheim). […] Enzyme activity of HRP was detected following incubation at room temperature for 30-60 min with 2,2′-azino-bis(3-ethylbenzthiazoline-6-sulfonic acid) (from Sigma; 2.5 mg/ml in 0.1 M citrate/Na2HPO4 buffer, pH 4.2) in the presence of 0.01% H2O2. […]

[7] = tested on: classical pathway (CP) of complement; test: Classical pathway ELISA: complement activation by NHS on immobilized IgM; format: biochemical, human; conditions: FIG. 3C; C1q-depleted NHS 1/400, purified C1q 0.5 μg/ml
Method: Anti-C1q antibodies were tested for their ability to inhibit the CP of complement by using immobilized IgM as a specific activator of the CP. […] These antibodies were tested for their effect on complement activation induced by immobilized mannan.
As a ligand for CP activation, human IgM was coated at 2 μg/ml. After blocking of residual binding sites, serum samples, diluted in GVB++, were added to the plate and incubated for 1 hour at 37° C.
The complement activation cascade was further studied by using mAb to detect binding of specific complement components upon their activation via the CP and the LP, respectively. […] Therefore, addition of mAb 2004 to serum allows the specific detection of LP activation by using mannan as ligand without any interference of the CP.

C1q [8] = molecular target: T1, C1q; test: C1q-dependent hemolytic assay; format: cell-based; set-up: Human C1q was isolated from human donor plasma exactly as described previously; from tissue; host or cells: human donor plasma
Method: (Roos A., et al., J. Immunol. 167, 7052-7059, 2001).
For the preparation of C1q-depleted serum, undiluted normal human EDTA plasma (obtained from a donor with the MBL/AA genotype) was applied on column consisting of Biogel A5 (from Biorad) coupled to rabbit IgG anti-human C1q. The column was washed by using Veronal-buffered saline (VBS; 1.8 mM Na-5,5-diethylbarbital, 0.2 mM 5,5-diethylbarbituric acid, 145 mM NaCl) containing 10 mM EDTA. Fractions were tested in a C1q-dependent hemolytic assay in the absence or presence of purified C1q. […] After recalcification, C1q-depleted serum was stored at −80° C.

Molecule	Mechanism of C1 inhibition (C1q [3])	also measured
O=C(O)CN(CCN(CC(=O)O)CC(=O)O)CC(=O)O [EDTA]		Detection of C3 when present in the complement source [1]: reduced until background levels
AEAKAKA	Inhibits C1q ligand binding	Inhibition of activation of the classical complement pathway [2]: able to inhibit
C1 inhibitor: plasma serine protease inhibitor	Inhibits C1r and C1s activity	
CEGPFGPRHDLTFCW [Peptide 2J]	Binds C1q head, inhibits	Inhibition of C1q-dependent hemolysis / C1q hemolytic function (C1q [4]): strong inhibitor; Inhibition of binding of C1q to IgG (C1q [5]): inhibits
KDIRCKDD	Inhibits C1q ligand binding	
LEQGENVFLQATLL [Peptide CBP2]	Acts as a competitor for C1q	
Surfactant protein A: collectin present in the lung	Inhibits C1q ligand binding	
VQVHNAKTKPR		Inhibition of activation of the classical complement pathway [2]: able to inhibit
human neutrophil peptide-1 [HNP-1]	Binds C1q tail and inhibits	
purified C1q: human C1q isolated from human donor plasma		C4 activation by mannan after addition to C1q-depleted serum [6]: slightly inhibited; C4 activation by IgM after reconstitution of C1q-depleted serum [7]: complete restoration; Restoration of lysis of antibody-coated erythrocytes induced by C1q-depleted human serum (C1q [8]): completely restore
B1		Inhibition of C1q-dependent hemolysis / C1q hemolytic function (C1q [4]): inhibit
B2	Binds C1q head	
B3	Binds to C1q head	
